From patent US6544767B1, “Cathespin O2 protease” (Axys Pharmaceuticals, Inc., priority 1994, dated 2003)
Like-named read-outs stand apart in the source and are kept apart here.

T1: recombinant human cathepsin O2 (Homo sapiens, UniProt P43235)
T1 construct: the mature protein spans from position 115 to 329 (215 amino acids); made in house; host or cells: Sf9 insect cells (baculovirus, pVL1392)
T1 sequence (P43235 115-329): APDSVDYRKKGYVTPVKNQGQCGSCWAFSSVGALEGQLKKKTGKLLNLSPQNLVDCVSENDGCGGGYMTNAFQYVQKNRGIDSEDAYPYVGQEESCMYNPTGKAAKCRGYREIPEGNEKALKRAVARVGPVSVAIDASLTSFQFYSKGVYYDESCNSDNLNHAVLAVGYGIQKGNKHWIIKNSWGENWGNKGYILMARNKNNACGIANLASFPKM


Tests used:
[1] = tested on: denatured soluble calf skin collagen; experiment: Gelatinase activity, SDS-PAGE; format: biochemical
Procedure: (§1) FIGS. 9A and 9B depict SDS PAGE of type I collagen (soluble calf skin collagen) after digestion with recombinant human cathepsin O2 and L and bovine trypsin. FIG. 9A: Collagenase activity: Digestion of soluble calf skin collagen at 28° C. and at pH 4.0, 5.0, 5.5, 6.0, 6.5, 7.0 by human cathepsins O2, S and L (each 50 nM) for 12 hours. The reaction was stopped by addition of 10 μM E-64. Untreated soluble collagen was used as standard (S). FIG. 9B: Gelatinase activity: Digestion of denatured soluble calf skin collagen (10 min heated at 70° C.) at 28° C. and at pH 4.0, 5.0, 5.5, 6.0, 6.5, 7.0 by human cathepsin O2 (0.1 nM), cathepsin L (0.2 nM) and human cathepsin S (1 nM). Molecular mass standards are indicated in the left lane.
(§2) Soluble calf skin Type I collagen was diluted to 0.4 mg/ml into 100 mM-sodium acetate buffer, pH 4.5, 5.0, 5.5, in 100 mM-potassium phosphate buffer, pH 6.0, 6.5 and 100 mM-Tris/HCl, pH 7.0 containing 2 mM-dithiotreitol/2 mM-EDTA. Human cathepsins O2, S and L and bovine trypsin (Sigma) were incubated at concentrations of 100 nM enzyme concentration for 10 hours at 28° C. To measure the gelatinase activity of cathepsins O2 and S, Type I collagen was heated for 10 min at 70° C. prior to incubation with the proteases. In the presence of 1 nM proteases the reaction mix was incubated for 30 min at 28° C. The samples were subjected to SDS polyacrylamide electrophoresis using 4-20% Tris-glycine gels (Novex, San Diego, Calif.).

[2] = tested on: Soluble calf skin Type I collagen; experiment: Collagenase activity, SDS-PAGE; format: biochemical
Procedure: as §1, §2

pH stability at 37° C. = format: physicochemical
Procedure: The residual activity was measured in time intervals using the above described fluorimetric substrate assay. The pH stability of cathepsins O2, S and L was studied at three different pH values. Recombinant human cathepsins O2, S and L were incubated at 37° C. in 100 mM sodium acetate buffer, pH 5.5, in 100 mM potassium phosphate buffer, pH 6.5 and in 100 mM Tris/HCl, pH 7.5 containing 5 mM dithiothreitol and 2.5 mM EDTA. Incubating for 0.5, 1, 2 and 4 hours, the activity remaining was determined using 5 μM Z-FR-MCA for cathepsin O2 (100 mM potassium phosphate buffer, pH 6.5) and cathepsin L (100 mM sodium acetate buffer, pH 5.5) and 5 μM Z-VVR-MCA for cathepsin S (100 mM potassium phosphate buffer, pH 6.5).

pH activity profile = format: biochemical; conditions: for pH optimum: calculated from (pK1 + pK2)/2
Procedure: Initial rates of substrate hydrolysis were monitored as described above. The pH activity profile of human cathepsin O2 was obtained at 1 μM substrate (Z-FR-MCA) concentration ([S]<<Km where the initial rate vo is directly proportional to the kcat/Km value). The following buffers were used for the pH activity profile: 100 mM sodium citrate (pH 2.8-5.6) and 100 mM sodium phosphate (pH 5.8-8.0). All buffers contained 1 mM EDTA and 0.4 M NaCl to minimize the variation in ionic strength. A three protonation model (Khouri et al., Biochem. 30:8929-8936 (1991)) was used for least square regression analysis of the pH activity data. The data were fitted to the following equation.
(kcat/Km)obs=(kcat/Km)/([H^+]/K1+1+K2/[H^+])

[^3H] elastin = Elastin degradation assay; format: biochemical
Procedure: Elastin (2 mg) was incubated in I ml buffer containing 2.5 mM dithiothreitol, 2.5 mM EDTA and 0.05% Triton X-100 for the cathepsin O2, S and L assays. Aliquots were withdrawn after 10, 20, 30, 50, 90, 120 and 180 min, centrifuged for 1 min at 14,000×g and counted in a 24-well plate containing scintillation fluid with Liquid Scintillation counter (1450 Microbeta Plus, Wallac/Pharmacia). Concentrations of human cathepsins O2, S and L and bovine elastase in the elastin degradation assay were 65 nM, 28 nM, 80 nM and 80 nM, respectively. To determine the pH effect on protease activity the digests were carried out at pH 4.5 and 5.5 (100 mM sodium acetate, 2.5 mM each dithiothreitol and EDTA, 0.05% Triton X-100), and at pH 7.0 (100 mM Tris/HCl, 2.5 mM each of dithiothreitol and EDTA, 0.05% Triton X-100). Pancreatic bovine elastase (Boehringer, Mannheim, Ind.) was assayed under the same conditions except that neither dithiothreitol nor EDTA was added to the incubation mixture.

[3] = from literature; cited from earlier work
[4] = molecular target: T1, recombinant human cathepsin O2; experiment: Inhibitor profile, fluorimetric enzyme assay with Z-FR-MCA; format: biochemical
Procedure: Human cathepsin O2 was assayed with a fluorogenic substrate Z-FR-MCA (MCA, methyl coumarylamide) in 100 mM sodium acetate buffer, containing 2.5 mM dithioerythreitol and 2.5 mM EDTA. Initial rates of hydrolysis of the MCA-substrate are monitored in 1-cm cuvettes at 25° C. at an excitation wavelength at 380 nm and an emission wavelength at 450 nm. The concentration of Z-FR-MCA is 5 μM under standard conditions.
The inhibition of cathepsin O2 was assayed at a constant substrate (5 μM Z-FR-MCA) and enzyme concentration (1 nM) in the presence of different inhibitor concentrations in the substrate assay buffer. Cathepsin O2 was preincubated with the inhibitors for 10 min and the reaction was started with substrate. The residual activity was monitored and percent inhibition was calculated from the uninhibited rate.
The efficacy of protease class specific inhibitors to inhibit cathepsin O2 was determined by adding the inhibitor to the purified enzyme in a fluorimetric enzyme assay (described above).

| Molecule | gelatinase activity [1] | collagenolytic activity [2] | Residual activity (%) (pH stability at 37° C.; pH 5.5, 37° C., 0.5 hr) | Residual activity (%) (pH stability at 37° C.; pH 5.5, 37° C., 1 hr) | Residual activity (%) (pH stability at 37° C.; pH 5.5, 37° C., 2 hr) | Residual activity (%) (pH stability at 37° C.; pH 5.5, 37° C., 4 hr) | Residual activity (%) (pH stability at 37° C.; pH 6.5, 37° C., 0.5 hr) | Residual activity (%) (pH stability at 37° C.; pH 6.5, 37° C., 2 hr) | Residual activity (%) (pH stability at 37° C.; pH 6.5, 37° C., 4 hr) | Residual activity (%) (pH stability at 37° C.; pH 7.5, 37° C., 0.5 hr) | Residual activity (%) (pH stability at 37° C.; pH 7.5, 37° C., 1 hr) | Residual activity (%) (pH stability at 37° C.; pH 7.5, 37° C., 2 hr) | Residual activity (%) (pH stability at 37° C.; pH 7.5, 37° C., 4 hr) | pH optimum (pH activity profile) | elastinolytic activity ([^3H] elastin; pH 4.5) | elastinolytic activity ([^3H] elastin; pH 5.5) | elastinolytic activity ([^3H] elastin; pH 7.0) | pK1 of pH activity profile [3] | pK2 of pH activity profile [3] | width of the pH profile [3] | also measured |
| --- | --- | --- | --- | --- | --- | --- | --- | --- | --- | --- | --- | --- | --- | --- | --- | --- | --- | --- | --- | --- | --- |
| cathepsin S: recombinant human cathepsin S expressed using the baculovirus expression system (protein) LPDSVDWREKGCVTEVKYQGSCGACWAFSAVGALEAQLKLKTGKLVSLSAQNLVDCSTEKYGNKGCNGGFMTTAFQYIIDNKGIDSDASYPYKAMDQKCQYDSKYRAATCSKYTELPYGREVDLKEAVANKGPVSVGVDARHPSFFLYRSGVYYEPSCTQNVNHGVLVVGYGDLNGKEYWLVKNSWGHNFGEEGYIRMARNKGNHCGIASFPSYPEI | significant weaker activity than the cathepsins O2 and L | very weak collagenolytic activity | 100% | 95% | 92% | 83% | 100% | 94% | 71% | 91% | 72% | 61% | 60% | 6.1 | 146 mg/min/μmol enzyme | 102 mg/min/μmol enzyme | 55 mg/min/μmol enzyme | 4.49 ± 0.03 | 7.82 ± 0.03 | 3.35 | Residual activity (%) (pH stability at 37° C.; pH 6.5, 37° C., 1 hr): 100% |
| chicken cystatin: cysteine protease inhibitor (protein) SEDRSRLLGAPVPVDENDEGLQRALQFAMAEYNRASNDKYSSRVVRVISAKRQLVSGIKYILQVEIGRTTCPKSSGDLQSCEFHDEPEMAKYTTCTFVVYSIPWLNQIKLLESKCQ | – | – | – | – | – | – | – | – | – | – | – | – | – | – | – | – | – | – | – | – | % inhibition ([4]; [inhibitor] 0.1 μM): 100%; inhibition of enzyme activity ([4]; concentrations above 0.1 μM): completely inhibit |
| trypsin: bovine trypsin (Sigma) (protein, UniProt P00760 24-246, looked up) Serine protease 1: IVGGYTCGANTVPYQVSLNSGYHFCGGSLINSQWVVSAAHCYKSGIQVRLGEDNINVVEGNEQFISASKSIVHPSYNSNTLNNDIMLIKLKSAASLNSRVASISLPTSCASAGTQCLISGWGNTKSSGTSYPDVLKCLKAPILSDSSCKSAYPGQITSNMFCAGYLEGGKDSCQGDSGGPVVCSGKLQGIVSWGSGCAQKNKPGVYTKVCNYVSWIKQTIASN | – | No degradation | – | – | – | – | – | – | – | – | – | – | – | – | – | – | – | – | – | – | – |
| papain: cysteine protease, literature comparison (protein, UniProt P00784 134-345, looked up) Papain: IPEYVDWRQKGAVTPVKNQGSCGSCWAFSAVVTIEGIIKIRTGNLNEYSEQELLDCDRRSYGCNGGYPWSALQLVAQYGIHYRNTYPYEGVQRYCRSREKGPYAAKTDGVRQVQPYNEGALLYSIANQPVSVVLEAAGKDFQLYRGGIFVGPCGNKVDHAVAAVGYGPNYILIKNSWGTGWGENGYIRIKRGTGNSYGVCGLYTSSFYPVKN | – | – | – | – | – | – | – | – | – | – | – | – | – | 6.5 | – | – | – | 4.54 ± 0.29 | 8.45 ± 0.02 | 3.91 | pK1′ of pH activity profile [3]: 3.58 ± 0.29 |
| cathepsin O2: recombinant human cysteine protease of the papain family, mature enzyme expressed in Sf9 cells (protein) APDSVDYRKKGYVTPVKNQGQCGSCWAFSSVGALEGQLKKKTGKLLNLSPQNLVDCVSENDGCGGGYMTNAFQYVQKNRGIDSEDAYPYVGQEESCMYNPTGKAAKCRGYREIPEGNEKALKRAVARVGPVSVAIDASLTSFQFYSKGVYYDESCNSDNLNHAVLAVGYGIQKGNKHWIIKNSWGENWGNKGYILMARNKNNACGIANLASFPKM | powerful gelatinase activity | – | 91% | 88% | 70% | 52% | 85% | 22% | 15% | 11% | 0% | 0% | 0% | 6.1 | 245 mg/min/μmol enzyme | 286 mg/min/μmol enzyme | 170 mg/min/μmol enzyme | – | – | – | time to total degradation of denatured collagen ([1]; 0.1 nM enzyme, pH range of 5.0 to 7.0): ≤ 30 min; degradation of Type I collagen ([2]; between pH 5.0 and 6.0 at 28° C.): extensively degraded; degradation of Type I collagen ([2]; pH 4.5 and pH 7.0, 28° C.): much less pronounced; pK1′ of pH activity profile (pH activity profile): 3.43 ± 0.05; width of the pH profile (pH activity profile): 4.15; pK1 of pH activity profile (pH activity profile; listed as Human cathepsin O2): 4.0; pK2 of pH activity profile (pH activity profile; listed as Human cathepsin O2): 8.13; pK1 of pH activity profile (pH activity profile; listed as human cathepsin O2): 4.00 ± 0.02; pK2 of pH activity profile (pH activity profile; listed as human cathepsin O2): 8.13 ± 0.01; pH of maximal elastinolytic activity ([^3H] elastin): 5.5; elastinolytic activity relative to pancreatic elastase ([^3H] elastin; neutral pH): 2.4 times; elastinolytic activity relative to cathepsin L ([^3H] elastin; pH 5.5): ~9 times |
